Legend:
MORT1 = molecular target: T1, MORT1 (Homo sapiens, UniProt Q13158); assay: Co-immunoprecipitation with MORT-1 from 293-EBNA cell lysates; assay type: binding; parameters: expressed in transfected cells; host or cells: 293-EBNA; HeLa (detail in the same paragraph); details: lysates of human embryonic kidney 293-EBNA cells
T1 sequence (Q13158 1-208): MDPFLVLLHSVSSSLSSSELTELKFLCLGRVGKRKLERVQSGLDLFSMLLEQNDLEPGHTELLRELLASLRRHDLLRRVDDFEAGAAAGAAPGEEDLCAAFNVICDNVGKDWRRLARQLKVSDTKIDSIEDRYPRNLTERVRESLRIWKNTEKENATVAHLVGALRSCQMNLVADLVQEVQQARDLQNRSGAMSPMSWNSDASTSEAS
Experimental: Testing further if MACHα1 can bind to MORT1 also within mammalian cells, MACHα1 or MACHβ1, fused with the FLAG octapeptide was expressed, together with HA epitope-tagged MORT1 molecules. ^35[S] metabolically labeled MACHα1 and MACHβ1 fused at their N-termini to the FLAG octapeptide (FLAG-MACHα1 and β1), and MORT1 fused at its N terminus to the HA epitope (Field et al, 1988) were expressed in HeLa cells. Immunoprecipitation of the proteins from lysates of the cells was performed using mouse monoclonal antibodies against the FLAG octapeptide (M2; Eastman Kodak), HA epitope (12CA5, Field et al, 1988) or the p75 TNF receptor (#9, Bigda et al, 1994) as a control. The proteins were analyzed by SDS-polyacrylamide gel electrophoresis (12% acrylamide), followed by autoradiography. […] The effectivity of interaction of MACHα1 with MORT1 appeared to be lower than that of MACHβ1.

MACH B = molecular target: T2, MACH B (Homo sapiens, UniProt Q14790); assay: Two-hybrid β-galactosidase expression filter assay in SFY526 yeast, DNA-binding domain hybrid MACH B; details: DNA-binding domain hybrid MACH B (ORF-B region)
T2 construct: a construct encoding only the ORF-B (MACH B) region; expressed in transfected cells; host or cells: SFY526 yeast
Source text: To isolate proteins interacting with the intracellular domain of the FAS-R, the yeast two-hybrid system was used (Fields and Song, 1989). […] In this system, the genes for the candidate interacting proteins are cloned into separate expression vectors. In one expression vector, the sequence of the one candidate protein is cloned in phase with the sequence of the GAL4 DNA-binding domain to generate a hybrid protein with the GAL4 DNA-binding-domain, and in the other vector, the sequence of the second candidate protein is cloned in phase with the sequence of the GAL4 activation domain to generate a hybrid protein with the GAL4-activation domain. The two hybrid vectors are then co-transformed into a yeast host strain having a lacZ or HIS3 reporter gene under the control of upstream GAL4 binding sites. […]
The yeast two-hybrid test was further applied to evaluate the specificity of binding of MACH to MORT-1, in particular, to define the region in MORT-1 to which MACH binds, as well as to determine which of the MACH ORFs interacts with MORT-1, the procedures being as set forth herein above in Examples 1 and 2. Briefly, various MORT-1 and MACH constructs were prepared for testing the interaction of the proteins encoded by the Gal4 DNA-binding domain and activation domain constructs within transfected SFY526 yeast cells as assessed by the β-galactosidase expression filter assay. […]

B1: MACHα1 (C360S): MACHα1 mutant in which the catalytic cysteine Cys360 is replaced by Ser (protein)
chain: MDFSRNLYDIGEQLDSEDLASLKFLSLDYIPQRKQEPIKDALMLFQRLQEKRMLEESNLSFLKELLFRINRLDLLITYLNTRKEEMERELQTPGRAQISAYRVMLYQISEEVSRSELRSFKFLLQEEISKCKLDDDMNLLDIFIEMEKRVILGEGKLDILKRVCAQINKSLLKIINDYEEFSKERSSSLEGSPDEFSNGEELCGVMTISDSPREQDSESQTLDKVYQMKSKPRGYCLIINNHNFAKAREKVPKLHSIRDRNGTHLDAGALTTTFEELHFEIKPHDDCTVEQIYEILKIYQLMDHSNMDCFICCILSHGDKGIIYGTDGQEAPIYELTSQFTGLKCPSLAGKPKVFFIQASQGDNYQKGIPVETDSEEQPYLEMDLSSPQTRYIPDEADFLLGMATVNNCVSYRNPAEGTWYIQSLCQSLRERCPRGDDILTILTEVNYEVSNKDDKKNMGKQMPQPTFTLRKKLVFPSD
coimmunoprecipitation with MORT-1 (MORT1): coimmunoprecipitated

B2: MORT-1: Mediator of Receptor-induced Toxicity; protein binding the intracellular domain of FAS-R, SEQ ID NO:2 (protein)
chain: VNQAPECRFGGGILGPLGKRRDLARASEPRTEGARRAGPQPRPLADPAMDPFLVLLHSVSSSLSSSELTELKFLCLGRVVKRKLERVQSGLDLFSMLLEQNDLEPGHTELLRELLASLRRHDLLRRVDDFEAGAAAGAAPGEEDLCAAFNVICDNVGKDWRRLARQLKVSDTKIDSIEDRYPRNLTERVRESLRIWKNTEKENATVAHLVGALRSCQMNLVADLVQEVQQARDLQNRSGAMSPMSWNSDASTSEAS
development of color (interaction with DNA-binding domain hybrid) (MACH B): + (“+++” and “+” indicate the development of a strong color within 30 and 90 min. of the assay, respectively)

B3: MACHβ1: MACH isoform, cDNA SEQ ID NO: 4, amino acid SEQ ID NO: 5; lacks the CED3/ICE homology region (protein)
chain: MDFSRNLYDIGEQLDSEDLASLKFLSLDYIPQRKQEPIKDALMLFQRLQEKRMLEESNLSFLKELLFRINRLDLLITYLNTRKEEMERELQTPGRAQISAYRVMLYQISEEVSRSELRSFKFLLQEEISKCKLDDDMNLLDIFIEMEKRVILGEGKLDILKRVCAQINKSLLKIINDYEEFSKERSSSLEGSPDEFSNDFGQSLPNEKQTSGILSDHQQSQFCKSTGESAQTSQH
coimmunoprecipitation with MORT-1 (MORT1): coimmunoprecipitated
development of color (interaction with DNA-binding domain hybrid) (MACH B): + (“+++” and “+” indicate the development of a strong color within 30 and 90 min. of the assay, respectively)
